Results published in US20230406921A1 (MABWELL SHANGHAI BIOSCIENCE, published 2023).

Columns and labels:
[1] = biological target: T1, CD47 on the surface of tumor cells (human, UniProt Q08722 19-323); test: FACS, SKOV-3 tumor cells (no PD-L1), antibody 100 nM
T1 construct: whole, on cells; Same protein as m4; also called CD47 antigen on the surface of U937 and CCRF cells; SKOV-3
Description: (§1) In the experiment of analyzing the binding to human red blood cells, the antibody was used at a concentration of 1000 nM; and in the experiment of analyzing the binding to tumor cells, the antibody was used at a concentration of 100 nM.

[2] = biological target: T2, CD47 on the surface of human red blood cells (human, UniProt Q08722 19-323); test: FACS, human red blood cells, antibody 1000 nM
T2 construct: whole, on cells; Same protein as m3, on red blood cells; also called hRBC; RBC
Description: as §1

PD-L1 = PD-L1 (human, UniProt Q9NZQ7 19-239, limits assumed); test: Fortebio BLI
[3] = biological target: T3, recombinant antigen of the extracellular region of CD47 (Sino Biological, Cat: 12283-H08H) (human, UniProt Q08722 19-139); test: Fortebio BLI
T3 construct: extracellular domain; also called recombinant CD47 extracellular region; CD47 recombinant protein

Sequence of PD-L1 (Q9NZQ7 19-239 limits assumed): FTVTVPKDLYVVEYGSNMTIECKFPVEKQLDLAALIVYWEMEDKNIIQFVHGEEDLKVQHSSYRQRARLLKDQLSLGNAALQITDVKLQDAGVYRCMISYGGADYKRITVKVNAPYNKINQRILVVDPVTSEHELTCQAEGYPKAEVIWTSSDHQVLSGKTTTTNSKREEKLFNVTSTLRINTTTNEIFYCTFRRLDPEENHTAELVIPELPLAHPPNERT

Binding to tumor cells (MFI) [1] [MFI] | Binding to human red blood cells (MFI) [2] [MFI] | Kd (PD-L1) [nM] | koff (PD-L1) [s⁻¹] | kon (PD-L1) [M⁻¹ s⁻¹] | Kd [3] [nM] | koff [3] [s⁻¹] | kon [3] [M⁻¹ s⁻¹] | Binder
24700 | 912 | 1.73 | 0.000496 | 287000 | 84.5 | 0.00879 | 104000 | anti-human CD47/PD-L1 bispecific antibody 2MW1531-m6 (bispecific antibody, Knobs-into-holes with a common light chain) heavy 1: EVQLVQSGAEVKKPGASVKVSCKASGYKFTNYVMSWVRQAPGQRLEWMGYINPYNDAIKYNEKFTGRVTITRDTSASTAYMELSSLRSEDTAVYYCAREGDFYANYGRLGFAYWGQGTLVTVSSASTKGPSVFPLAPCSRSTSESTAALGCLVKDYFPEPVTVSWNSGALTSGVHTFPAVLQSSGLYSLSSVVTVPSSSLGTQTYTCNVDHKPSNTKVDKRVESKYGPPCPPCPAPEFLGGPSVFLFPPKPKDTLMISRTPEVTCVVVDVSQEDPEVQFNWYVDGVEVHNAKTKPREEQYNSTYRVVSVLTVLHQDWLNGKEYKCKVSNKGLPSSIEKTISKAKGQPREPQVYTLPPSQKEMTKNQVSLTCLVKGFYPSDIAVEWESNGQPENNYKTTPPVLDSDGSFFLYSKLTVDKSRWQEGNVFSCSVMHEALHNRYTQKSLSLSLGK heavy 2: EVQLVQSGAEVKKPGATVKISCKVSGFNIKDIYMHWVQQAPGKGLEWMGRIDPANANTKYDPKFQDRVTITADTSTNTAYMELSSLRSEDTAVYYCASGQLGPLGFDYWGQGTTVTVSSASTKGPSVFPLAPCSRSTSESTAALGCLVKDYFPEPVTVSWNSGALTSGVHTFPAVLQSSGLYSLSSVVTVPSSSLGTQTYTCNVDHKPSNTKVDKRVESKYGPPCPPCPAPEFLGGPSVFLFPPKPKDTLMISRTPEVTCVVVDVSQEDPEVQFNWYVDGVEVHNAKTKPREEQYNSTYRVVSVLTVLHQDWLNGKEYKCKVSNKGLPSSIEKTISKAKGQPREPQVYTLPPSQEEMTKNQVSLTCLVKGFYPSDIAVEWESNGQPENNYKTTPPVLDSDGSFFLYSKLTVDKSRWQEGNVFSCSVMHEALHNHYTQESLSLSLGK VL: DIQMTQSPSSLSASVGDRVTITCRASQDISNYLNWYQQKPGKAPKLLLYYTSRLHSGVPSRFSGSGSGTDYTLTISSLQPEDFATYFCQQGATRPYTFGGGTKVEIKRTVAAPSVFIFPPSDEQLKSGTASVVCLLNNFYPREAKVQWKVDNALQSGNSQESVTEQDSKDSTYSLSSTLTLSKADYEKHKVYACEVTHQGLSSPVTKSFNRGEC
28200 | 763 | 0.546 | 0.000134 | 245000 | 107 | 0.00937 | 87900 | anti-human CD47/PD-L1 bispecific antibody 2MW1531-m8 (bispecific antibody, Knobs-into-holes with a common light chain) heavy 1: EVQLVQSGAEVKKPGASVKVSCKASGYKFTNYVMSWVRQAPGQRLEWMGYINPYNDAIKYNEKFTGRVTITRDTSASTAYMELSSLRSEDTAVYYCAREGDFYANYGRLGFAYWGQGTLVTVSSASTKGPSVFPLAPCSRSTSESTAALGCLVKDYFPEPVTVSWNSGALTSGVHTFPAVLQSSGLYSLSSVVTVPSSSLGTQTYTCNVDHKPSNTKVDKRVESKYGPPCPPCPAPEFLGGPSVFLFPPKPKDTLMISRTPEVTCVVVDVSQEDPEVQFNWYVDGVEVHNAKTKPREEQYNSTYRVVSVLTVLHQDWLNGKEYKCKVSNKGLPSSIEKTISKAKGQPREPQVYTLPPSQKEMTKNQVSLTCLVKGFYPSDIAVEWESNGQPENNYKTTPPVLDSDGSFFLYSKLTVDKSRWQEGNVFSCSVMHEALHNRYTQKSLSLSLGK heavy 2: EVQLVQSGAEVKKPGATVKISCKVSGFNIKDIYMHWVQQAPGKGLEWMGRIDPANANTKYDPKFQDRVTITADTSTNTAYMELSSLRSEDTAVYYCASGQLGPLGFDYWGQGTTVTVSSASTKGPSVFPLAPCSRSTSESTAALGCLVKDYFPEPVTVSWNSGALTSGVHTFPAVLQSSGLYSLSSVVTVPSSSLGTQTYTCNVDHKPSNTKVDKRVESKYGPPCPPCPAPEFLGGPSVFLFPPKPKDTLMISRTPEVTCVVVDVSQEDPEVQFNWYVDGVEVHNAKTKPREEQYNSTYRVVSVLTVLHQDWLNGKEYKCKVSNKGLPSSIEKTISKAKGQPREPQVYTLPPSQEEMTKNQVSLTCLVKGFYPSDIAVEWESNGQPENNYKTTPPVLDSDGSFFLYSKLTVDKSRWQEGNVFSCSVMHEALHNHYTQESLSLSLGK VL: DIQMTQSPSSLSASVGDRVTITCRASQDISNYLNWYQQKPGKAPKLLLYYTSRLHSGVPSRFSGSGSGTDYTLTISSLQPEDFATYFCQQGAGRPRTFGGGTKVEIKRTVAAPSVFIFPPSDEQLKSGTASVVCLLNNFYPREAKVQWKVDNALQSGNSQESVTEQDSKDSTYSLSSTLTLSKADYEKHKVYACEVTHQGLSSPVTKSFNRGEC
37800 | 781 | 0.706 | 0.000272 | 385000 | 79.6 | 0.00947 | 119000 | anti-human CD47/PD-L1 bispecific antibody 2MW1531-m9 (bispecific antibody, human IgG4 S228P, kappa, Knobs-into-holes with a common light chain) heavy 1: EVQLVQSGAEVKKPGASVKVSCKASGYKFTNYVMSWVRQAPGQRLEWMGYINPYNDAIKYNEKFTGRVTITRDTSASTAYMELSSLRSEDTAVYYCAREGDFYANYGRLGFAYWGQGTLVTVSSASTKGPSVFPLAPCSRSTSESTAALGCLVKDYFPEPVTVSWNSGALTSGVHTFPAVLQSSGLYSLSSVVTVPSSSLGTQTYTCNVDHKPSNTKVDKRVESKYGPPCPPCPAPEFLGGPSVFLFPPKPKDTLMISRTPEVTCVVVDVSQEDPEVQFNWYVDGVEVHNAKTKPREEQYNSTYRVVSVLTVLHQDWLNGKEYKCKVSNKGLPSSIEKTISKAKGQPREPQVYTLPPSQKEMTKNQVSLTCLVKGFYPSDIAVEWESNGQPENNYKTTPPVLDSDGSFFLYSKLTVDKSRWQEGNVFSCSVMHEALHNRYTQKSLSLSLGK heavy 2: EVQLVQSGAEVKKPGATVKISCKVSGFNIKDIYMHWVQQAPGKGLEWMGRIDPANANTKYDPKFQDRVTITADTSTNTAYMELSSLRSEDTAVYYCASGQLGPLGFDYWGQGTTVTVSSASTKGPSVFPLAPCSRSTSESTAALGCLVKDYFPEPVTVSWNSGALTSGVHTFPAVLQSSGLYSLSSVVTVPSSSLGTQTYTCNVDHKPSNTKVDKRVESKYGPPCPPCPAPEFLGGPSVFLFPPKPKDTLMISRTPEVTCVVVDVSQEDPEVQFNWYVDGVEVHNAKTKPREEQYNSTYRVVSVLTVLHQDWLNGKEYKCKVSNKGLPSSIEKTISKAKGQPREPQVYTLPPSQEEMTKNQVSLTCLVKGFYPSDIAVEWESNGQPENNYKTTPPVLDSDGSFFLYSKLTVDKSRWQEGNVFSCSVMHEALHNHYTQESLSLSLGK VL: DIQMTQSPSSLSASVGDRVTITCRASQDISNYLNWYQQKPGKAPKLLLYYTSRLHSGVPSRFSGSGSGTDYTLTISSLQPEDFATYFCQQGDTFPYTFGGGTKVEIKRTVAAPSVFIFPPSDEQLKSGTASVVCLLNNFYPREAKVQWKVDNALQSGNSQESVTEQDSKDSTYSLSSTLTLSKADYEKHKVYACEVTHQGLSSPVTKSFNRGEC
28900 | 878 | 0.784 | 0.000237 | 302000 | 74.9 | 0.00907 | 121000 | anti-human CD47/PD-L1 bispecific antibody 2MW1531-m11 (bispecific antibody, Knobs-into-holes with a common light chain) heavy 1: EVQLVQSGAEVKKPGASVKVSCKASGYKFTNYVMSWVRQAPGQRLEWMGYINPYNDAIKYNEKFTGRVTITRDTSASTAYMELSSLRSEDTAVYYCAREGDFYANYGRLGFAYWGQGTLVTVSSASTKGPSVFPLAPCSRSTSESTAALGCLVKDYFPEPVTVSWNSGALTSGVHTFPAVLQSSGLYSLSSVVTVPSSSLGTQTYTCNVDHKPSNTKVDKRVESKYGPPCPPCPAPEFLGGPSVFLFPPKPKDTLMISRTPEVTCVVVDVSQEDPEVQFNWYVDGVEVHNAKTKPREEQYNSTYRVVSVLTVLHQDWLNGKEYKCKVSNKGLPSSIEKTISKAKGQPREPQVYTLPPSQKEMTKNQVSLTCLVKGFYPSDIAVEWESNGQPENNYKTTPPVLDSDGSFFLYSKLTVDKSRWQEGNVFSCSVMHEALHNRYTQKSLSLSLGK heavy 2: EVQLVQSGAEVKKPGATVKISCKVSGFNIKDIYMHWVQQAPGKGLEWMGRIDPANANTKYDPKFQDRVTITADTSTNTAYMELSSLRSEDTAVYYCASGQLGPLGFDYWGQGTTVTVSSASTKGPSVFPLAPCSRSTSESTAALGCLVKDYFPEPVTVSWNSGALTSGVHTFPAVLQSSGLYSLSSVVTVPSSSLGTQTYTCNVDHKPSNTKVDKRVESKYGPPCPPCPAPEFLGGPSVFLFPPKPKDTLMISRTPEVTCVVVDVSQEDPEVQFNWYVDGVEVHNAKTKPREEQYNSTYRVVSVLTVLHQDWLNGKEYKCKVSNKGLPSSIEKTISKAKGQPREPQVYTLPPSQEEMTKNQVSLTCLVKGFYPSDIAVEWESNGQPENNYKTTPPVLDSDGSFFLYSKLTVDKSRWQEGNVFSCSVMHEALHNHYTQESLSLSLGK VL: not shown
26200 | 890 | 1.28 | 0.000369 | 288000 | 54.8 | 0.00547 | 99800 | anti-human CD47/PD-L1 bispecific antibody 2MW1531-m10 (bispecific antibody, Knobs-into-holes with a common light chain) heavy 1: EVQLVQSGAEVKKPGASVKVSCKASGYKFTNYVMSWVRQAPGQRLEWMGYINPYNDAIKYNEKFTGRVTITRDTSASTAYMELSSLRSEDTAVYYCAREGDFYANYGRLGFAYWGQGTLVTVSSASTKGPSVFPLAPCSRSTSESTAALGCLVKDYFPEPVTVSWNSGALTSGVHTFPAVLQSSGLYSLSSVVTVPSSSLGTQTYTCNVDHKPSNTKVDKRVESKYGPPCPPCPAPEFLGGPSVFLFPPKPKDTLMISRTPEVTCVVVDVSQEDPEVQFNWYVDGVEVHNAKTKPREEQYNSTYRVVSVLTVLHQDWLNGKEYKCKVSNKGLPSSIEKTISKAKGQPREPQVYTLPPSQKEMTKNQVSLTCLVKGFYPSDIAVEWESNGQPENNYKTTPPVLDSDGSFFLYSKLTVDKSRWQEGNVFSCSVMHEALHNRYTQKSLSLSLGK heavy 2: EVQLVQSGAEVKKPGATVKISCKVSGFNIKDIYMHWVQQAPGKGLEWMGRIDPANANTKYDPKFQDRVTITADTSTNTAYMELSSLRSEDTAVYYCASGQLGPLGFDYWGQGTTVTVSSASTKGPSVFPLAPCSRSTSESTAALGCLVKDYFPEPVTVSWNSGALTSGVHTFPAVLQSSGLYSLSSVVTVPSSSLGTQTYTCNVDHKPSNTKVDKRVESKYGPPCPPCPAPEFLGGPSVFLFPPKPKDTLMISRTPEVTCVVVDVSQEDPEVQFNWYVDGVEVHNAKTKPREEQYNSTYRVVSVLTVLHQDWLNGKEYKCKVSNKGLPSSIEKTISKAKGQPREPQVYTLPPSQEEMTKNQVSLTCLVKGFYPSDIAVEWESNGQPENNYKTTPPVLDSDGSFFLYSKLTVDKSRWQEGNVFSCSVMHEALHNHYTQESLSLSLGK VL: not shown
